Molecular target: the molecule itself
Test: non-reducing SDS-PAGE with immunoblot; 0.5 uM purified His-ALAD preincubated in PBS, untreated or oxidized (1 mM H2O2); non-reducing 10% SDS polyacrylamide gel; anti-His blot

B1: recombinant His-tagged ALAD (ALAD1 without the predicted transit peptide) (enzyme, Arabidopsis thaliana, UniProt Q9SFH9 53-430, looked up)
chain: ASESGNGHAKKLGMSDAECEAAVAAGNVPEAPPVPPKPAAPVGTPIIKPLNLSRRPRRNRASPVTRAAFQETDISPANFVYPLFIHEGEEDTPIGAMPGCYRLGWRHGLVQEVAKARAVGVNSIVLFPKVPEALKNSTGDEAYNDNGLVPRTIRLLKDKYPDLIIYTDVALDPYSSDGHDGIVREDGVIMNDETVHQLCKQAVSQARAGADVVSPSDMMDGRVGAIRSALDAEGFQNVSIMSYTAKYASSFYGPFREALDSNPRFGDKKTYQMNPANYREALIEAREDEAEGADILLVKPGLPYLDIIRLLRDKSPLPIAAYQVSGEYSMIKAGGVLKMIDEEKVMMESLMCLRRAGADIILTYFALQAATCLCGEKR
notes: Arabidopsis thaliana ALAD1 (HEMB1; AT1G69740) without the predicted transit peptide (ChloroP); also called recombinant ALAD; purified ALAD; source: E. coli Rosetta(DE3), pET28a, purified (Ni-NTA agarose); not shown: His6, N-terminal, kept
  binding result: binds

— article PMC6262466, “Towards Initial Indications for a Thiol-Based Redox Control of Arabidopsis 5-Aminolevulinic Acid Dehydratase” (Antioxidants, 2018)
